This passage reports Kd, koff and kon results from paper PMC11180174 (Nature Communications, 2024).

Where only a bound is given, the exact number is not on record here.

Experiment [1] has as its target T1, SARS-CoV-2 (Wuhan-Hu-1 strain) wild-type RBD, His-tagged (SARS-CoV-2 Wuhan-Hu-1 (MN908947.3), UniProt P0DTC2).
T1 construct: source: HEK293F, transiently transfected, purified (Ni Sepharose); not shown: 8xHis, C-terminal, kept
Description: BLI. Conditions: both partners purified.

Experiment [2] has as its target T2, SARS-CoV-2 (Wuhan-Hu-1 strain) wild-type spike RBD-His (SARS-CoV-2 Wuhan-Hu-1 (MN908947.3), UniProt P0DTC2).
T2 construct: source: HEK293F, transfected, purified (Ni Sepharose); not shown: His8, C-terminal, kept
Briefly: BLI. Conditions: both partners purified.

B1: neutralizing antibody 7F3 (antibody, V domains shown)
VH: EVQLVESGGGLVKPGRSLRLSCTASGFTFGDYAMSWFRQAPGKGLEWVGFIRSKAYGGTTEYAASVKGRFTISRDDSKSIAYLQMNSLKTEDTAVYYCTRDRYARYDILTGLSPAGADYFYYAMDVWGQGTTVTVSS
VL: EIVLTQSPATLSLSPGERATLSCRASQSVSSYLAWYQQKPGQAPRLLIYDASNRATGIPARFSGSGSGTDFTLTISSLEPEDFAVYYCQQRSNWPQYTFGQGTKLEIK
In experiment [1], B1 showed a Kd below 1 pM, a koff below 1e-07 s⁻¹ and a kon of 192000 M⁻¹ s⁻¹.

B2: 7F3 neutralizing antibody (IgG) (antibody, V domains shown)
VH: B1 VH
VL: B1 VL
In experiment [2], B2 displayed a Kd below 1 pM, a koff below 1e-07 s⁻¹ and a kon of 192000 M⁻¹ s⁻¹.

B3: LY-CoV1404 (also known as bebtelovimab) (antibody, V domains shown)
VH: QITLKESGPTLVKPTQTLTLTCTFSGFSLSISGVGVGWLRQPPGKALEWLALIYWDDDKRYSPSLKSRLTISKDTSKNQVVLKMTNIDPVDTATYYCAHHSISTIFDHWGQGTLVTVSS
VL: QSALTQPASVSGSPGQSITISCTATSSDVGDYNYVSWYQQHPGKAPKLMIFEVSDRPSGISNRFSGSKSGNTASLTISGLQAEDEADYYCSSYTTSSAVFGGGTKLTVL
notes: control antibody
On to B3, for which, in experiment [1], the Kd was below 1 pM, the koff was below 1e-07 s⁻¹ and the kon worked out at 79100 M⁻¹ s⁻¹.

B4: LY-CoV1404 (bebtelovimab) (antibody, V domains shown)
VH: B3 VH
VL: B3 VL
As for B4, in experiment [2], the Kd was below 1 pM, the koff is below 1e-07 s⁻¹ and the kon is 79100 M⁻¹ s⁻¹.
